Consider 18 molecules from patent publication US12180473B2, “Chimeric RNA-driven genomic rearrangement in mammalian cells” (priority 2018, dated 2024).

Entries after “also recorded” stand apart in the source; their conditions may differ.

The subject of the data set is TMPRSS2-ERG fusion. The data set can be described thus: RT-PCR detection of induced endogenous TMPRSS2-ERG fusion transcript in LNCaP cells expressing input RNA. The note with it: for induction of endogenous TMPRSS2-ERG fusion transcript (RT-PCR): LNCaP cells transfected with input RNA plasmid, DHT for 3 days; for Cell line(s) identified: fusion gene partners TMPRSS2-ERG, LNCaP.

Procedure: LNCaP cells were cultured in this special medium for 24 hrs prior to plasmid transfection.
Transfection was performed using Turbofect transfection reagent (Thermo Scientific, #R0531) according to manufacturer's protocol. Briefly, 1 μg of a particular plasmid was first diluted in 100 μl of the serum-free DMEM followed by immediate mixing by pipetting. 4 μl of the transfection reagent was then added to the diluted DNA followed by mixing and incubation for 20 min. The DNA/transfection reagent mixture was then added drop wise to a well containing LNCaP cells in 1 ml medium.
For treating cultured cells, concentrated DHT stock was diluted as 10× working solutions (for example, for 0.9 μM final concentration, 10× is prepared as 9.0 μM) with the appropriate complete culture medium and used immediately. […] Six hrs post transfection, 111 μl of fresh 10× DHT working solutions was added to each well of 12-wells plate containing 1 ml medium and transfected cells.
Briefly, cells were suspended in 200 μl of PBS buffer and were then lysed with 400 μl of lysis buffer. The sample was then passed through the filter assembly resulting in the binding of the nucleic acids to the filter. The filter containing nucleic acids was then incubated with DNase I dissolved in DNase incubation buffer to degrade genomic and plasmid DNAs. The column was then rinsed with wash buffer and total RNA then eluted in a new tube for further analysis.
After the addition of dNTPs, the mixture was denatured at 65° C. for 5 minutes. This was followed by the addition of a master-mix containing 1× superscript buffer, 10 mM DTT, 5 mM Magnesium chloride, RNaseOUT and Superscript III reverse transcriptase. Reactions were carried out at 50° C. for 50 minutes and then terminated by incubation at 85° C. for 5 minutes. cDNA was then treated with RNase-H for 20 minutes at 37° C. to degrade RNA in DNA/RNA hybrid. 1 μl of cDNA was used as template for each subsequent PCR reaction.
The Denaturation, Annealing and Extension steps were performed 32 cycles for induced fusion RNA and 27 cycles for input RNA.

B1: Antisense-B2: input RNA, SEQ ID NO: 16 (nucleic acid)
antisense: TGTGCTCGCTTCGGCAGCACATATACTAACATTGGAACGATCCTGCAGTGGCCTGAGCCTTGAAGAATGGGGTGTACTGGGTAAATCAAAATGGTGGGGAGCATTTCCAGATGGAGAAACTGCCCCTCCCCAGCCCGGACCCCGAGCCGGGACCCTGGTACCGGCGCCGCTCACC
Turning to B1, the “induction of endogenous TMPRSS2-ERG fusion transcript (RT-PCR)” value (shortened to “induction”) is recorded as “complete loss of induction”.

B2: Antisense-D2: input RNA, SEQ ID NO: 22 (nucleic acid)
antisense: TGTGCTCGCTTCGGCAGCACATATACTAACATTGGAACGATCCTGCAGGAGAGACAGAGAGAGAGAGGCTGGTAGAGGGAAGAGACAGAAGAAAGATGAAGGGATAAGTGTCCAGAATCCCTGCCCAGCACTCTCCCAGCACCCCGGGAGGCGCCCTGCCCGGCTGGCCCCAGCG
Take B2: the “induction” value is “complete loss of induction”.

B3: Sense-B1: input RNA, SEQ ID NO: 31 (nucleic acid)
sense: TGTGCTCGCTTCGGCAGCACATATACTAACATTGGAACGATCCTGCAGCGGAGGCGGAGGGCGAGGGGCGGGGAGCGCCGCCTGGAGCGCGGCAGGTGAGGCAGTTTCTCCATCTGGAAATGCTCCCCACCATATTGATTTACCCAGTACACCCCATTCTTCAAGGCTCAGGCCA
Consider B3, for which the “induction” value is recorded as “failed to induce fusion transcripts”.

B4: Antisense-1: input RNA, SEQ ID NO: 4 (nucleic acid)
antisense: TCAGATCGCCTGGAGACGCCATCCACGCTGTTTTGACCTCCATAGAAGACACCGGGACCGATCCAGCCTCCCCTCGAAGCTGATCCTGAGAACTTCAGGCTCCTGGGCAACGTGCTGGTCTGTGTGCTGGCCCATCACTTTGGCAAAGAATTCCTTGAGCCATTCACCTGGCTAGGGTTACATTCCATTTTGATGGTGACCCTGGCTGGGGGTTGAGACAGCCAATCCTGCTGAGGGACGCGTGGGCTCATCTTGGAAGTCTGTCCATAGTCGCTGGAGGAGGACGCGGTCATCTCTGTCTTAGCCAGGTGTGGCGTTCCGTAGGCACACTCAAACAACGACTGGTCCTCACTCACAACTGATAAGGCTTCCTGCCGCGCTCCAGGCGGCGCTCCCCGCCCCTCGCCCTCCGCCTCCGCCTCCGCCTCCTGCTTAGCTCGCGCCTACTCAAGCTTATCGATACCGTCGACCTCGAGGGCCCAGATCTAATTCACCCCACCAGTGCAGGCTGCCTATCAGAAAGTGGTGGCTGGTGTGGCTAATGCCCTGGCCCACAAGTATCACTAAGCTCGCTTTCTTGCTGTCCAATTTCTATTAAAGGTTCCTTTGTTCCCTAAGTCCAACTACTAAACTGGGGGATATTATGAAGGGCCTTCCGGAGCATCTGGATTCTGCCTAATAAAAAACATTTATTTTCATTGCAAAAAAA
With B4, the “induction” value is recorded as “induced a clear band of 721 bp” and the “Cell line(s) identified” value was “LNCaP”.

B5: Antisense-F1: input RNA, SEQ ID NO: 25 (nucleic acid)
antisense: TGTGCTCGCTTCGGCAGCACATATACTAACATTGGAACGATCCTGCAGAATGGATGAATACATAAAATAAATTGTGGTGGATATATACAACGGAATATCATTTAGCCTTTATTATTATTGAGAACTGTGCCGAGCCGGGCAGGACAGGATGAGGTGGACCGAAGCGCCCAGGTGC
With B5, the “induction” value was “failed to induce fusion transcripts”.

B6: Antisense-E1: input RNA, SEQ ID NO: 24 (nucleic acid)
antisense: TGTGCTCGCTTCGGCAGCACATATACTAACATTGGAACGATCCTGCAGAGGGTATTCAGTATTACTATTTGGCTTAGATAAGCTGGTAGTTACTTGCTAAAATTAATCTTTATTATAAAGCAGAAAGCCGCATTCTGACATCACTCTCCATGGACAAAGATTCTTCGCTTGATCA
Turning to B6, the “induction” value is reported as “failed to induce fusion transcripts”.

B7: Sense-C1: input RNA, SEQ ID NO: 32 (nucleic acid)
sense: TGTGCTCGCTTCGGCAGCACATATACTAACATTGGAACGATCCTGCAGGGTCCCCAAAGCTGGCTCCTAGTCCGCCTGCCCTCCACGGCCCCCGCCTGGGGTTAGTGCATGAAGAGTGTTACCAGGACGGGGTCTACCCAGTGCTCATCTATGTCATAGGAAGAGCATGAGCTCA
Take B7: the “induction” value is “failed to induce fusion transcripts”.

B8: Antisense-C3: input RNA, SEQ ID NO: 20 (nucleic acid)
antisense: TGTGCTCGCTTCGGCAGCACATATACTAACATTGGAACGATCCTGCAGGTCCTGGTAACACTATTCATGCACTAACAAGTTGGTTGCCAGTGAGACTTGATTATTATGACTCTGGGAGTGCTGCCCAGGCGGGGGCCGTGGAGGGCAGGCGGACTAGGAGCCAGCTTTGGGGACC
On to B8, for which the “induction” value is “complete loss of induction”.

B9: Antisense-5A: input RNA, SEQ ID NO: 13 (nucleic acid)
antisense: TGTGCTCGCTTCGGCAGCACATATACTAACATTGGAACGATCCTGCAGGCCGCTCACCTGCCGCGCTCCAGGCGGCGCTCCCCGCCCCTCGCCCTCCGCCAGACAGGAGTGAGAGATGGAAGCTCGCGCCTACTC
As to B9, the “induction” value is reported as “loss of induction”.

B10: Antisense-5B: input RNA, SEQ ID NO: 14 (nucleic acid)
antisense: TGTGCTCGCTTCGGCAGCACATATACTAACATTGGAACGATCCTGCAGCTTGAGCCATTCACCTGGCTAGGGTTACATTCCATATTGATGGTGACCCTGGCTGGGGGTTGAGACAGCCAATCC
modifications: input RNA, chemistry not given here
B10: the “induction” value is on record as “loss of induction”.

B11: Antisense-7: input RNA, SEQ ID NO: 10 (nucleic acid)
antisense: TGTGCTCGCTTCGGCAGCACATATACTAACATTGGAACGATCCTGCAGCTTGAGCCATTCACCTGGCTAGGGTTACATTCCATATTGATGGTGACCCTGGCTGGGGGTTGAGACAGCCAATCCCGGACCCCGAGCCGGGACCCTGGTACCGGCGCCGCTCACCTGCCGCGCTCCAAGACAGGAGTGAGAGATGGAAGCTCGCGCCTACTC
B11: the “induction” value was “loss of induction; also recorded: did not”.

B12: Antisense-D3: input RNA, SEQ ID NO: 23 (nucleic acid)
antisense: TGTGCTCGCTTCGGCAGCACATATACTAACATTGGAACGATCCTGCAGTGAAGGGATAAGTGTCCAGAATCCCTGGATCTGGGATGGAATAAAGGATCTGGATGGTAAACGGAGAGTGCTGGGAGCGCTCGACCCTCGGGCGCACTCACCTGCCGCGCCGCGCTCCTCACACCCG
On to B12, for which the “induction” value is “complete loss of induction”.

B13: Antisense-B1: input RNA, SEQ ID NO: 15 (nucleic acid)
antisense: TGTGCTCGCTTCGGCAGCACATATACTAACATTGGAACGATCCTGCAGTGGCCTGAGCCTTGAAGAATGGGGTGTACTGGGTAAATCAAAATGGTGGGGAGCATTTCCAGATGGAGAAACTGCCTCACCTGCCGCGCTCCAGGCGGCGCTCCCCGCCCCTCGCCCTCCGCCTCCG
Consider B13, for which the “induction” value was “clearly induced fusion transcripts” and the “Cell line(s) identified” value is reported as “LNCaP”.

B14: Antisense-C1: input RNA, SEQ ID NO: 18 (nucleic acid)
antisense: TGTGCTCGCTTCGGCAGCACATATACTAACATTGGAACGATCCTGCAGTGAGCTCATGCTATTCCTATGACATAGATGAGCACTGGGTAGACCCCGTCCTGGTAACACTATTCATGCACTAACCCCAGGCGGGGGCCGTGGAGGGCAGGCGGACTAGGAGCCAGCTTTGGGGACC
Turning to B14, the “induction” value is recorded as “clearly induced fusion transcripts” and the “Cell line(s) identified” value is reported as “LNCaP”.

B15: Antisense-D1: input RNA, SEQ ID NO: 21 (nucleic acid)
antisense: TGTGCTCGCTTCGGCAGCACATATACTAACATTGGAACGATCCTGCAGGAGAGACAGAGAGAGAGAGGCTGGTAGAGGGAAGAGACAGAAGAAAGATGAAGGGATAAGTGTCCAGAATCCCTGAGCGCTCGACCCTCGGGCGCACTCACCTGCCGCGCCGCGCTCCTCACACCCG
Consider B15, for which the “induction” value is given as “clearly induced fusion transcripts” and the “Cell line(s) identified” value was “LNCaP”.

B16: Antisense-3: input RNA, SEQ ID NO: 6 (nucleic acid)
antisense: TGTGCTCGCTTCGGCAGCACATATACTAACATTGGAACGATCCTGCAGCTTGAGCCATTCACCTGGCTAGGGTTACATTCCATATTGATGGTGACCCTGGCTGGGGGTTGAGACAGCCAATCCCGGACCCCGAGCCGGGACCCTGGTACCGGCGCCGCTCACCTGCCGCGCTCCAGGCGGCGCTCCCCGCCCCTCGCCCTCCGCCAGACAGGAGTGAGAGATGGAAGCTCGCGCCTACTC
For the molecule B16, the “induction” value is “unable to induce fusion”. The “induction” value (listed as antisense-3) is recorded as “inability of antisense-3 to induce; also recorded: did not”.

B17: Sense-D1: input RNA, SEQ ID NO: 33 (nucleic acid)
sense: TGTGCTCGCTTCGGCAGCACATATACTAACATTGGAACGATCCTGCAGCGGGTGTGAGGAGCGCGGCGCGGCAGGTGAGTGCGCCCGAGGGTCGAGCGCTCAGGGATTCTGGACACTTATCCCTTCATCTTTCTTCTGTCTCTTCCCTCTACCAGCCTCTCTCTCTCTGTCTCTC
For B17, the “induction” value is recorded as “failed to induce fusion transcripts”.

B18: Antisense-G1: input RNA, SEQ ID NO: 26 (nucleic acid)
antisense: TGTGCTCGCTTCGGCAGCACATATACTAACATTGGAACGATCCTGCAGTTTATTCATGAGAAAATTCTGGCACAATGGAAAACCCTGGCAAGCAAAAGATAGGGGCAGCAGATGTCCTGGCCTACAAAGAACTCCAAGCCCATCGTCCCTAGAAAGCATGGTCTCCCATGACCCC
Consider B18, for which the “induction” value is “failed to induce fusion transcripts”.
